To fix the notation:
B1: LIGHT (74-240) (ligand)
chain: DGPAGSWEQLIQERRSHEVNPAAHLTGANSSLTGSGGPLLWETQLGLAFLRGLSYHDGALVVTKAGYYYIYSKVQLGGVGCPLGLASTITHGLYKRTPRYPEELELLVSQQSPCGRATSSSRVWWDSSFLGGVVHLEAGEKVVVRVLDERLVRLRDGTRSYFGAFMV
notes: Soluble protein carries an N-terminal His tag; also called wild-type human LIGHT; LIGHT (74-240) (wt)
B3: human HVEM extracellular domain fused with an Fc fragment at the C-terminus (Fc fusion, UniProt Q92956 39-202, looked up)
chain: LPSCKEDEYPVGSECCPKCSPGYRVKEACGELTGTVCEPCPPGTYIAHLNGLSKCLQCQMCDPAMGLRASRNCSRTENAVCGCSPGHFCIVQDGDHCAACRAYATSSPGQRVQKGGTESQDTLCQNCPPGTFSPNGTLEECQHQTKCSWLVTKAGAGTSSSHWV
notes: extracellular domain; Bought; also called hHVEM; not shown: Fc fragment at the C-terminus

Read-outs that look alike come from different tables or passages of the source.

Assay [1] deals with T1, mouse HVEM extracellular domain fused with an Fc fragment at the C-terminus (mouse, UniProt Q80WM9 39-206, limits assumed).
T1 construct: extracellular domain; Bought; also called mHVEM; not shown: Fc fragment at the C-terminus
T1 sequence (looked up): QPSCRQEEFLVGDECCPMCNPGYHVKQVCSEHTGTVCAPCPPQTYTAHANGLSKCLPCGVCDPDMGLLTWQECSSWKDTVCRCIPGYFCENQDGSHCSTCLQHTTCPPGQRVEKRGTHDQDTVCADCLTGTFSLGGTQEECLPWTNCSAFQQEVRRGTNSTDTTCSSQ
Put plainly: phage ELISA. The gist of the method: (§1)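 Supernatants from fourth-round clones rescued with helper phage were applied to plates coated with 1 μg/ml target for 1 h at room temperature. Bound phage detected with HRP anti-M13 and TMB at OD450; clones were called positive when the target/BSA ratio was >3.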

The target in assay [2] is T2, human LTβR extracellular domain fused with an Fc fragment at the C-terminus (human, UniProt P36941 31-227).
T2 construct: extracellular domain; Bought; also called hLTβR; not shown: Fc fragment at the C-terminus
T2 sequence (P36941 31-227): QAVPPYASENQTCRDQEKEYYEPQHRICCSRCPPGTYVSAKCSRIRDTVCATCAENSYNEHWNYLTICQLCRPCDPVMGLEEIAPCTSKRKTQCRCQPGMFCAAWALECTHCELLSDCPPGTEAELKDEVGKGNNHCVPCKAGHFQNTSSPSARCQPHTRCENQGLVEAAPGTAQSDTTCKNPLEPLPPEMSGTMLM
Put plainly: ELISA on coated target-Fc. Here is the method:
(§2) Nunc MaxiSorp 96-well plates (Thermofisher) were coated with target proteins (1 μg/ml), and then blocked with 2% BSA-PBS buffer for one hour. Serial dilutions of the LIGHT muteins were added with a maximum concentration of 200 ng/ml. The plates were incubated for one hour, washed four times with PBST, and then incubated with mouse anti-His tag antibody (#105327, Sino Biological) for 1 hour. The plates were further incubated with HRP-conjugated goat anti-mouse secondary antibody (#SSA006, Sino Biological) before being washed three times with PBST and treated with TMB substrate (#34029, ThermoFisher). The plates were read at 450 nm on a SpectraMax M5 microplate reader (Molecule Devices). The ELISA results were analyzed using GraphPad Prism 9.0 software and the EC50s (half maximal effective concentration) were summarized in Table 5-1 and Table 5-2.

For assay [3], the target named is B3. Put plainly: ELISA on coated target-Fc. Here is the method: as §2
Assay [4] concerns the target T3, mouse LTβR extracellular domain fused with an Fc fragment at the C-terminus (mouse, UniProt P50284 31-223).
T3 construct: extracellular domain; Bought; also called mLTβR; not shown: Fc fragment at the C-terminus
Briefly: ELISA on coated target-Fc. Here is the method: as §2

The target of assay [5] is T2, human LTβR extracellular domain fused …. Briefly: ELISA on coated target-Fc. Here is the method: as §2
This is another data set of the same source.

For assay [6], the target named is T4, recombinant DcR3 protein (human DcR3 residues 33-300 linked to the N-terminal of rabbit Fc) (human, UniProt O95407 33-300).
T4 construct: range 33-300; Expressed in Expi293F, purified on protein A; not shown: rabbit Fc
T4 sequence (looked up): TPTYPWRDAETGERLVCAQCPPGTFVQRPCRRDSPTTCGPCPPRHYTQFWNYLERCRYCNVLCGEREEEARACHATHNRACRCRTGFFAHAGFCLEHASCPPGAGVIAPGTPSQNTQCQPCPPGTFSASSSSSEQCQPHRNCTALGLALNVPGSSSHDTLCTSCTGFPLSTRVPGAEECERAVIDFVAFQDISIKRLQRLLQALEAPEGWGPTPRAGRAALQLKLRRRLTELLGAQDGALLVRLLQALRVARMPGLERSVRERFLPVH
Put plainly: ELISA on coated DcR3-rabbit Fc. Here is the method: To test whether the muteins can bind to DcR3, the recombinant DcR3 protein was generated by linking human DcR3 residues 33-300 to the N-terminal of rabbit Fc. The recombinant proteins were expressed in Expi293F and affinity-purified using protein A beads, as previously described. Human DcR3 proteins were immobilized onto maxiSorp 96-well ELISA plates (Thermo Fisher) at a concentration of 0.5 μg/mL and then blocked with 2% BSA-PBS buffer for one hour. The LIGHT variants were added to the plates at various dilutions, with a maximum concentration of 10 nM. The plates were incubated for one hour, washed four times with PBST, and then incubated with mouse anti-His tag antibody (#105327, Sino Biological) for 1 hour. The plates were further incubated with HRP-conjugated goat anti-mouse secondary antibody (#SSA006, Sino Biological) before being washed three times with PBST and treated with TMB substrate (#34029, ThermoFisher). The plates were read at 450 nm on a SpectraMax M5 microplate reader (Molecule Devices). The ELISA results were analyzed using GraphPad Prism 9.0 software and the EC50s (half maximal effective concentration) were summarized in Table 5-2.

Assay [7] deals with B1. Put plainly: ELISA on coated target-Fc. Here is the method:
as §2

Assay [8] concerns the target B3. Briefly: ELISA on coated target-Fc. Here is the method: as §2
The source holds these as a separate data set.

For assay [9], the target named is T3, mouse LTβR extracellular domain fused …. Briefly: ELISA on coated target-Fc. Here is the method:
as §2
This is another data set of the same source.

The target in assay [10] is B3. Briefly: ELISA on coated target-Fc, Table 5-1. Here is the method: as §2
The target in assay [11] is T3, mouse LTβR extracellular domain fused …. Briefly: phage ELISA. In a few lines: as §1

T3 sequence (P50284 31-223): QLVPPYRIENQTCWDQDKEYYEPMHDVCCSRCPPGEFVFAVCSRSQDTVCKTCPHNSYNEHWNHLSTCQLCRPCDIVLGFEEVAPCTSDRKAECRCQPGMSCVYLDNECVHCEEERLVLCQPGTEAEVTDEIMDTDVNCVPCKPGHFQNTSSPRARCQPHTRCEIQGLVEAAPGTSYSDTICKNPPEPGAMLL

On to B1, for which the binding result in [1] is given as “binds”. The EC50 came out at 0.22 µg/mL in assay [2]; 0.992 nM in [3]; 0.885 nM in [4]; 0.365 nM in assay [5]; 0.247 nM in [6].

B2: LIGHT-90 (ligand)
chain: DGPAGSWEQLIQERRSHEVNPAAHLTGANSSLTGSGGPLLWETQLGLAFLRGLSYHDGALVVTKAGYYYIYSKVQLGGVGCPLGLAGGITHGLYKRTPRYPEELELLVSQQSPCGRATSSSRVWWDSSFLGGVVHLEAGEKVVVRVTDSRLVRLRDGTRSYFGAFMV
notes: Printed mutations: S160G, T161G, L220T, E222S; Soluble protein carries an N-terminal His tag
Consider B2, for which the EC50 was found to be 2.12 nM in [3], 0.978 nM in assay [4], 1.78 nM in assay [5] and 0.692 nM in assay [6].
Turning to B3, the binding result in assay [7] is recorded as “binds”.

B4: LIGHT-52 (ligand)
chain: DGPAGSWEQLIQERRSHEVNPAAHLTGANSSLTGSGGPLLWETQLGLAFLRGLSYHDGALVVTKAGYYYIYSKVQLGGVGCPLGLASTITHGLYKRTPRYPEELELLVSQQSPCGRATSSSRVWWDSSFLGGVVHLEAGEKVVVRVSDERLVRLRDGTRSYFGAFMV
notes: Printed mutations: L220S; Soluble protein carries an N-terminal His tag
With B4, the binding result in assay [1] is “binds”. The EC50 in [8] was 0.019 µg/mL; in assay [9], 0.0279 µg/mL; in [2] it was 0.0577 µg/mL; in assay [3], 0.599 nM; in assay [4], 2.07 nM; in assay [5] it was 0.33 nM. Besides, the EC50 in [6] amounted to 0.19 nM.

B5: LIGHT-2 (ligand)
chain: DGPAGSWEQLIQERRSHEVNPAAHLTGANSSLTGSGGPLLWETQLGLAFLRGLSYHDGALVVTKAGYYYIYSKVQLGGVGCPLGLASTITHGLYKRTPRYPEELELLVSQQSPCGSATSSSRVWQDSSFLGGVVHLEAGEKVVVRVLDERLVRLLDGTRSYFGAFMV
notes: Printed mutations: R189S, W198Q, R228L; Soluble protein carries an N-terminal His tag
As for B5, the binding result in assay [1] and in assay [10] was “no binding” in each case. The EC50 in assay [2] was determined as 0.0762 µg/mL; in assay [4], 2.06 nM; in assay [5], 0.328 nM.

B6: LIGHT-1 (ligand)
chain: DGPAGSWEQLIQERRSHEVNPAAHLTGANSSLTGSGGPLLWETQLGLAFLRGLSYHDGALVVTKAGYYYIYSKVQLGGMGCPLGLASTITHGLYKRTPRYPEELELLVSQQSPCGRATSSSRVWQDSSFLGGVVHLEAGEKVVVRVLDERLVRLLDGTRSYFGAFMV
notes: Printed mutations: V152M, W198Q, R228L; Soluble protein carries an N-terminal His tag
B6: the binding result in assay [1] and in [10] was “no binding” throughout. For the same molecule, the EC50 turned out to be 0.0605 µg/mL in [9], 0.0493 µg/mL in assay [2], 0.8 nM in [4] and 0.262 nM in [5].

B7: LIGHT-7 (ligand)
chain: DGPAGSWEQLIQERRSHEVNPAAHLTGANSSLTGSGGPLLWETQLGLAFLRGLSYHDGALVVTKAGYYYIYSKVQLGGVGCRLGLASTITHGLYKRTPRYPEELELLVSQQSPCGRATSSSRVWWDSSFLGGVVHLEAGEKVVVRVQDERLVRLRDGTHSYFGAFMV
notes: Printed mutations: P155R, L220Q, R232H; Soluble protein carries an N-terminal His tag
In the case of B7, the figures for the binding result in assay [1] and in assay [10] were “binds” and “no binding”, respectively. For the same molecule, the EC50 in [9] turned out to be 0.156 µg/mL; in assay [2], 0.109 µg/mL.

B8: LIGHT-5 (ligand)
chain: DGPAGSWEQLIQERRSHEVNPAAHLTGANSSLTGSGGPLLWETQLGLAFLRGLSYHDGALVVTKAGYYYIYSKVQLGGVGCPLGLASPITHGLYKRTPRYPEELELLVSQQSPCGSATSSSRVWQDSSFLGGVVHLEAGEKVVVRVLDERLVRLLDGTRSYFGAFMV
notes: Printed mutations: T161P, R189S, W198Q, R228L; Soluble protein carries an N-terminal His tag
Turning to B8, the binding result is listed as “binds” in assay [11], “binds” in [1] and “no binding” in assay [10]. A half-maximal effect in assay [2] (EC50) was put at 0.0538 µg/mL.

B9: LIGHT-3 (ligand)
chain: DGPAGSWEQLIQERRSHEVNPAAHLTGANSSLTGSGGPLLWETQLGLAFLRGLSYHDGALVVTKAGYYYIYSKVQLAGVGCPLGLASTITHGLYKRTPRYPEELELLVSQQSPCGRATSSSRVWWDSSFLGGVVHLEAGEKVVVRVSDERLVRLRDGTRSYFGAFMV
notes: Printed mutations: G150A, L220S; Soluble protein carries an N-terminal His tag
Regarding B9, the binding result is listed as “binds” in assay [1] and “no binding” in [10]. Further, the EC50 in [9] came out at 0.0401 µg/mL; in [2], 0.0436 µg/mL.

Source of the values: US20250361288A1 (Gilead, published 2025).
